This note sets out measurements from EP4676958A2 (dated 2026).

In this experiment the target is T1, active human KLK7 (human, UniProt P49862 30-253).
T1 construct: mature; also called hKLK7; active form of hKLK7
Description: SPR, antibody captured on Protein A chip, 20 nM hKLK7 (FIG. 11A, 11F). (In SPR one partner is held on a chip, and binding of the other changes the refractive index at the surface.)

T1 sequence (P49862 30-253): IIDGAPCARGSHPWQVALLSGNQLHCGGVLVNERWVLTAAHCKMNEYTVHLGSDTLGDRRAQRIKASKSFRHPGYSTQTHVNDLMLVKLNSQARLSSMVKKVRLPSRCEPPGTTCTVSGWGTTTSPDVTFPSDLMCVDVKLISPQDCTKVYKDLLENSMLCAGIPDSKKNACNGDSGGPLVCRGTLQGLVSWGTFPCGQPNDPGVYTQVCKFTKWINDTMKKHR

B1: KLK7-L1-Ab8 (antibody, V domains shown)
VH: QVQLVQSGAEVKKPGASVKVSCKASGYTFTSEGIHWVRQAPGQGLEWMGSISASSGDTNYAQKLQGRVTMTTDTSTSTAYMELRSLRSDDTAVYYCARSAGYGARHWYFDLWGQGTMVTVSS
VL: DIQMTQSPSSLSASVGDRVTITCRASQSISSYLNWYQQKPGKAPKLLIYGASSLQSGVPSRFSGSGSGTDFTLTISSLQPEDFATYYCDQWYSTPPITFGGGTKVEIK
notes: captured on Protein A; also called KLK7-Ll-Ab8; KLK7- Ll-Ab8
For the molecule B1, the binding result is listed as “binds”.
